Numbered stars: 1 amine (or outer) side, 2 acyl side, 3 side chain; on linkers, the order of the positions; unused ones are H or OH. Bridge positions count the residues as written; N and C are the ends. Side chains are listed from the residue outwards. Ends that are not written are not given here. * marks the point of attachment. C20 diacid = O=C(O)CCCCCCCCCCCCCCCCCCC(=O)*; γGlu = O=C(O)[C@H](CCC(=O)[*:2])N[*:1]
Assays:
rat calcitonin receptor [1] = target: T1, rat calcitonin receptor (rat, UniProt P32214 25-516); assay: SPA competition with 125I-calcitonin, membranes with rat calcitonin receptor (Assay VIII)
T1 construct: whole, on cells; Used as membranes prepared from the transfected cells; also called rCTR; rCT
T1 sequence (looked up): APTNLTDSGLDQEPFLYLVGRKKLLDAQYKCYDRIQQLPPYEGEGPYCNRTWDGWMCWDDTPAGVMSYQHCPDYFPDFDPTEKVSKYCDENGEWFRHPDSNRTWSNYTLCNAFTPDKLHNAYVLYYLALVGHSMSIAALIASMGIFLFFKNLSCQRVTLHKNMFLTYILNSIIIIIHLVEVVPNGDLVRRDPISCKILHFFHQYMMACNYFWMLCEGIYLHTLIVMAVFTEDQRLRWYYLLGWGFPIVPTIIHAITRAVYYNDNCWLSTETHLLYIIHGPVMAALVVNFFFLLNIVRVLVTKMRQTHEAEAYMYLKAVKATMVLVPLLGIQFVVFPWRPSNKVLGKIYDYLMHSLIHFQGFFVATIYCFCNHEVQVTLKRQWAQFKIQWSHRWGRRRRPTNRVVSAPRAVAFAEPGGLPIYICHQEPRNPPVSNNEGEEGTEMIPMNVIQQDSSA

rat calcitonin receptor [2] = target: T1, rat calcitonin receptor; assay: ratio of binding IC50 at rat calcitonin receptor to IC50 at rat amylin receptor (reference)
[3] = target: T2, human calcitonin receptor (human, UniProt P30988 25-474); assay: ratio of binding IC50 at human calcitonin receptor to IC50 at human amylin receptor (reference)
T2 construct: whole, on cells; Used as membranes prepared from the transfected cells; also called hCTR; hCT
T2 sequence (looked up): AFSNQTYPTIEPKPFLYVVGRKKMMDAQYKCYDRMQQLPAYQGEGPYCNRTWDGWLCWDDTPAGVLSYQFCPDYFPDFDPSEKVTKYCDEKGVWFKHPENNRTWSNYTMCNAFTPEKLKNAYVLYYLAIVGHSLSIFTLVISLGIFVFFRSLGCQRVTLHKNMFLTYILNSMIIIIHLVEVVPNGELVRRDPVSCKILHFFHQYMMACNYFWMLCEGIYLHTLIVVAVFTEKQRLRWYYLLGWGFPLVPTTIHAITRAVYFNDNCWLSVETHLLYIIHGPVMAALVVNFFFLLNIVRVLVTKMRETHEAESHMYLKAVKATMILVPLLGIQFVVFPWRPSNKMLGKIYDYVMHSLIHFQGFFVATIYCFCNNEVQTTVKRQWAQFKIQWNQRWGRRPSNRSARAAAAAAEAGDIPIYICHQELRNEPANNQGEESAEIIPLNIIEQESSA
Summary of the method: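 Competition binding by SPA with cell membranes (35 ng/μL) and SPA beads in 50 mM Hepes pH 7.4 with 1 mM CaCl2, 5 mM MgCl2, 0.1% OA and 0.02% Tween20. Incubated 120 min at 25 °C with shaking, then counted.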

Row | Binder | IC50 (rat calcitonin receptor [1]) [nM] | Ratio rCT/rAmylin binding (rat calcitonin receptor [2]) | Ratio hCT/hAmylin binding [3]
1 | K([γGlu-C20 diacid])CNTATCATQRLARFLRHSSPNFGAIPSSTPVGSNTY-NH2 (disulfide 2-7; N-terminus assumed; SMILES CC[C@H](C)[C@H](NC(=O)[C@H](C)NC(=O)CNC(=O)[C@H](Cc1ccccc1)NC(=O)[C@H](CC(N)=O)NC(=O)[C@@H]1CCCN1C(=O)[C@H](CO)NC(=O)[C@H](CO)NC(=O)[C@H](Cc1c[nH]cn1)NC(=O)[C@H](CCCNC(=N)N)NC(=O)[C@H](CC(C)C)NC(=O)[C@H](Cc1ccccc1)NC(=O)[C@H](CCCNC(=N)N)NC(=O)[C@H](C)NC(=O)[C@H](CC(C)C)NC(=O)[C@H](CCCNC(=N)N)NC(=O)[C@H](CCC(N)=O)NC(=O)[C@@H](NC(=O)[C@H](C)NC(=O)[C@@H]1CSSC[C@H](NC(=O)[C@@H](N)CCCCNC(=O)CC[C@H](NC(=O)CCCCCCCCCCCCCCCCCCC(=O)O)C(=O)O)C(=O)N[C@@H](CC(N)=O)C(=O)N[C@@H]([C@@H](C)O)C(=O)N[C@@H](C)C(=O)N[C@@H]([C@@H](C)O)C(=O)N1)[C@@H](C)O)C(=O)N1CCC[C@H]1C(=O)N[C@@H](CO)C(=O)N[C@@H](CO)C(=O)N[C@H](C(=O)N1CCC[C@H]1C(=O)N[C@H](C(=O)NCC(=O)N[C@@H](CO)C(=O)N[C@@H](CC(N)=O)C(=O)N[C@H](C(=O)N[C@@H](Cc1ccc(O)cc1)C(N)=O)[C@@H](C)O)C(C)C)[C@@H](C)O, Analogue of human amylin; disulfide and C-terminal amide as told for h-amylin; also called compound 63) | 124 | 35.6 | 157
2 | K([γGlu-C20 diacid])CNTATCATQRLARFLRHSSPNFGAIPSSTNVGPNTY-NH2 (disulfide 2-7; N-terminus assumed; SMILES CC[C@H](C)[C@H](NC(=O)[C@H](C)NC(=O)CNC(=O)[C@H](Cc1ccccc1)NC(=O)[C@H](CC(N)=O)NC(=O)[C@@H]1CCCN1C(=O)[C@H](CO)NC(=O)[C@H](CO)NC(=O)[C@H](Cc1c[nH]cn1)NC(=O)[C@H](CCCNC(=N)N)NC(=O)[C@H](CC(C)C)NC(=O)[C@H](Cc1ccccc1)NC(=O)[C@H](CCCNC(=N)N)NC(=O)[C@H](C)NC(=O)[C@H](CC(C)C)NC(=O)[C@H](CCCNC(=N)N)NC(=O)[C@H](CCC(N)=O)NC(=O)[C@@H](NC(=O)[C@H](C)NC(=O)[C@@H]1CSSC[C@H](NC(=O)[C@@H](N)CCCCNC(=O)CC[C@H](NC(=O)CCCCCCCCCCCCCCCCCCC(=O)O)C(=O)O)C(=O)N[C@@H](CC(N)=O)C(=O)N[C@@H]([C@@H](C)O)C(=O)N[C@@H](C)C(=O)N[C@@H]([C@@H](C)O)C(=O)N1)[C@@H](C)O)C(=O)N1CCC[C@H]1C(=O)N[C@@H](CO)C(=O)N[C@@H](CO)C(=O)N[C@H](C(=O)N[C@@H](CC(N)=O)C(=O)N[C@H](C(=O)NCC(=O)N1CCC[C@H]1C(=O)N[C@@H](CC(N)=O)C(=O)N[C@H](C(=O)N[C@@H](Cc1ccc(O)cc1)C(N)=O)[C@@H](C)O)C(C)C)[C@@H](C)O, Analogue of human amylin; disulfide and C-terminal amide as told for h-amylin; also called compound 65) | 108 | 93.2 | 82.4

Reference: patent US20140087995A1 (published 2014)
